34 substances from the supplement of paper PMC5998384 can be followed below.

Data set [1] deals with HeLa Kyoto. The experiment in a line: solubility change mitosis vs G1/S (difference of NP-40 vs SDS log2 ratios) (log2 ratio difference); higher = more soluble in mitosis.
The test system of data set [2] is HeLa Kyoto. The experiment in a line: thermal stability score vs G1/S (z-score of summed log2 fold changes over temperatures); higher = more thermally stable than in G1/S.
Data set [3] concerns HeLa Kyoto. Nature of the data set: solubility in G1/S (NP-40 vs SDS abundance) (log2 ratio); higher = more soluble. The settings on record: cell cycle stage: G1/S.
The test system of data set [4] is HeLa Kyoto. Nature of the data set: melting temperature (median over replicates), in situ; higher = more thermally stable. The note with it: cell cycle stage: mitosis.
Setting [5] is: cell cycle stage: early G1 (4.5 h after nocodazole release).
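For melting temperature (median over replicates), in situ in this document: HeLa Kyoto cells synchronized by double thymidine or nocodazole block, proteins quantified by TMT10plex mass spectrometry, three independent biological replicates.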
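For solubility change mitosis vs G1/S (difference of NP-40 vs SDS log2 ratios) in this document: synchronized HeLa Kyoto cells (double thymidine block for G1/S, nocodazole release for mitosis), protein amounts in NP-40 versus SDS lysates quantified by mass spectrometry, three biological replicates.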
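For solubility in G1/S (NP-40 vs SDS abundance) in this document: HeLa Kyoto cells arrested at G1/S by double thymidine block, proteins quantified by TMT10plex mass spectrometry in mild NP-40 versus SDS extracts, three biological replicates.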
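For thermal stability score vs G1/S (z-score of summed log2 fold changes over temperatures) in this document: synchronized HeLa Kyoto cells, proteins quantified by TMT10plex mass spectrometry, three biological replicates, mitosis taken 0.5 h after nocodazole release, G1/S directly after double thymidine block.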

“MAASSSGEKEKERLGGGLGVAGGNSTRERLLSALEDLEVLSRELIEMLAISRNQKLLQAGEENQVLELLIHRDGEFQELMKLALNQGKIHHEMQVLEKEVEKRDSDIQQLQKQLKEAEQILATAVYQAKEKLKSIEKARKGAISSEEIIKYAHRISASNAVCAPLTWVPGDPRRPYPTDLEMRSGLLGQMNNPSTNGVNGHLPGDALAAGRLPDVLAPQYPWQSNDMSMNMLPPNHSSDFLLEPPGHNKENEDDVEIMSTDSSSSSSESD [MED4]”: the “solubility change mitosis (log2)” value in the data set on HeLa Kyoto [1] is -0.0345. The values for the thermal stability score in the data set with HeLa Kyoto [2] (setting [5]) and in the data set with HeLa Kyoto [2] (cell cycle stage: mitosis) were -1.56 and -1.18, respectively.

Regarding “MFSWMGRQAGGRERAGGADAVQTVTGGLRSLYLRKVLPLEEAYRFHEFHSPALEDADFENKPMILLVGQYSTGKTTFIRYLLEQDFPGMRIGPEPTTDSFIAVMYGETEGSTPGNALVVDPKKPFRKLSRFGNAFLNRFMCSQLPNQVLKSISVIDSPGILSGEKQRISRGYDFCQVLQWFAERVDRIILLFDAHKLDISDEFSEAIKAFRGQDDKIRVVLNKADQVDTQQLMRVYGALMWSLGKVINTPEVLRVYIGSFWAQPLQNTDNRRLFEAEAQDLFRDIQSLPQKAAVRKLNDLIKRARLAKVHAYIISYLKKEMPSVFGKENKKRELISRLPEIYIQLQREYQISAGDFPEVKAMQEQLENYDFTKFHSLKPKLIEAVDNMLSNKISPLMNLISQEETSTPTQLVQGGAFDGTTEGPFNQGYGEGAKEGADEEEWVVAKDKPVYDELFYTLSPINGKISGVNAKKEMVTSKLPNSVLGKIWKLADCDCDGMLDEEEFALAKHLIKIKLDGYELPSSLPPHLVPPSHRKSLPKAD [EHD4]”, the “solubility in G1/S (log2)” value with HeLa Kyoto [3] came out at 0.226. Besides, the melting temperature in the data set with HeLa Kyoto [4] was 50.4 °C.

“MFYAHFVLSKRGPLAKIWLAAHWDKKLTKAHVFECNLESSVESIISPKVKMALRTSGHLLLGVVRIYHRKAKYLLADCNEAFIKIKMAFRPGVVDLPEENREAAYNAITLPEEFHDFDQPLPDLDDIDVAQQFSLNQSRVEEITMREEVGNISILQENDFGDFGMDDREIMREGSAFEDDDMLVSTTTSNLLLESEQSTSNLNEKINHLEYEDQYKDDNFGEGNDGGILDDKLISNNDGGIFDDPPALSEAGVMLPEQPAHDDMDEDDNVSMGGPDSPDSVDPVEPMPTMTDQTTLVPNEEEAFALEPIDITVKETKAKRKRKLIVDSVKELDSKTIRAQLSDYSDIVTTLDLAPPTKKLMMWKETGGVEKLFSLPAQPLWNNRLLKLFTRCLTPLVPEDLRKRRKGGEADNLDEFLKEFENPEVPREDQQQQHQQRDVIDEPIIEEPSRLQESVMEASRTNIDESAMPPPPPQGVKRKAGQIDPEPVMPPQQVEQMEIPPVELPPEEPPNICQLIPELELLPEKEKEKEKEKEDDEEEEDEDASGGDQDQEERRWNKRTQQMLHGLQRALAKTGAESISLLELCRNTNRKQAAAKFYSFLVLKKQQAIELTQEEPYSDIIATPGPRFHII [RAD21]”: the “solubility change mitosis (log2)” value in the data set with HeLa Kyoto [1] is -0.0219. Moreover, the thermal stability score was -1.05 with HeLa Kyoto [2] (setting [5]) and -1.37 in the data set with HeLa Kyoto [2] (cell cycle stage: mitosis).

“MPGIDKLPIEETLEDSPQTRSLLGVFEEDATAISNYMNQLYQAMHRIYDAQNELSAATHLTSKLLKEYEKQRFPLGGDDEVMSSTLQQFSKVIDELSSCHAVLSTQLADAMMFPITQFKERDLKEILTLKEVFQIASNDHDAAINRYSRLSKKRENDKVKYEVTEDVYTSRKKQHQTMMHYFCALNTLQYKKKIALLEPLLGYMQAQISFFKMGSENLNEQLEEFLANIGTSVQNVRREMDSDIETMQQTIEDLEVASDPLYVPDPDPTKFPVNRNLTRKAGYLNARNKTGLVSSTWDRQFYFTQGGNLMSQARGDVAGGLAMDIDNCSVMAVDCEDRRYCFQITSFDGKKSSILQAESKKDHEEWICTINNISKQIYLSENPEETAARVNQSALEAVTPSPSFQQRHESLRPAAGQSRPPTARTSSSGSLGSESTNLAALSLDSLVAPDTPIQFDIISPVCEDQPGQAKAFGQGGRRTNPFGESGGSTKSETEDSILHQLFIVRFLGSMEVKSDDHPDVVYETMRQILAARAIHNIFRMTESHLLVTCDCLKLIDPQTQVTRLTFPLPCVVLYATHQENKRLFGFVLRTSSGRSESNLSSVCYIFESNNEGEKICDSVGLAKQIALHAELDRRASEKQKEIERVKEKQQKELNKQKQIEKDLEEQSRLIAASSRPNQASSEGQFVVLSSSQSEESDLGEGGKKRESEA [APPL1]”: in the data set on HeLa Kyoto [3], the “solubility in G1/S (log2)” value amounted to 0.05. In the data set on HeLa Kyoto [4], this substance yielded a melting temperature of 50.4 °C.

“MSALEKSMHLGRLPSRPPLPGSGGSQSGAKMRMGPGRKRDFSPVPWSQYFESMEDVEVENETGKDTFRVYKSGSEGPVLLLLHGGGHSALSWAVFTAAIISRVQCRIVALDLRSHGETKVKNPEDLSAETMAKDVGNVVEAMYGDLPPPIMLIGHSMGGAIAVHTASSNLVPSLLGLCMIDVVEGTAMDALNSMQNFLRGRPKTFKSLENAIEWSVKSGQIRNLESARVSMVGQVKQCEGITSPEGSKSIVEGIIEEEEEDEEGSESISKRKKEDDMETKKDHPYTWRIELAKTEKYWDGWFRGLSNLFLSCPIPKLLLLAGVDRLDKDLTIGQMQGKFQMQVLPQCGHAVHEDAPDKVAEAVATFLIRHRFAEPIGGFQCVFPGC [PPME1]”: in the data set with HeLa Kyoto [1], the “solubility change mitosis (log2)” value worked out at 0.0133. Further, the figures for the thermal stability score with HeLa Kyoto [2] (setting [5]) and in the data set on HeLa Kyoto [2] (cell cycle stage: mitosis) were -0.13 and -0.609, respectively.

In the case of RPL8, in the data set on HeLa Kyoto [1], the “solubility change mitosis (log2)” value worked out at 0.63.

In the case of RPL10, in the data set with HeLa Kyoto [1], the “solubility change mitosis (log2)” value is 0.638.

As to RPL10A, the “solubility change mitosis (log2)” value in the data set on HeLa Kyoto [1] came to 0.596.

As for RPL14, in the data set with HeLa Kyoto [1], the “solubility change mitosis (log2)” value was 0.811.

Regarding RPL17, the “solubility change mitosis (log2)” value in the data set with HeLa Kyoto [1] is 0.699.

Turning to RPL18A, the “solubility change mitosis (log2)” value with HeLa Kyoto [1] came to 0.618.

With RPL26, in the data set on HeLa Kyoto [1], the “solubility change mitosis (log2)” value stood at 0.817.

For the substance RPL28, the “solubility change mitosis (log2)” value in the data set with HeLa Kyoto [1] turned out to be 0.852.

RPL37A: in the data set on HeLa Kyoto [1], the “solubility change mitosis (log2)” value is 0.616.

For RPLP0, the “solubility change mitosis (log2)” value in the data set with HeLa Kyoto [1] was determined as 0.6.

Turning to RPS7, the “solubility change mitosis (log2)” value in the data set with HeLa Kyoto [1] turned out to be 0.675.

For RPS17, the “solubility change mitosis (log2)” value with HeLa Kyoto [1] worked out at 0.529.

Consider RPS19, for which the “solubility change mitosis (log2)” value in the data set with HeLa Kyoto [1] came out at 1.02.

As for RPS20, in the data set on HeLa Kyoto [1], the “solubility change mitosis (log2)” value was found to be 0.612.

In the case of RPS23, the “solubility change mitosis (log2)” value in the data set with HeLa Kyoto [1] was found to be 0.687.

Turning to RPS24, the “solubility change mitosis (log2)” value with HeLa Kyoto [1] is 0.772.

Regarding RPS25, in the data set with HeLa Kyoto [1], the “solubility change mitosis (log2)” value worked out at 0.71.

With RPS26, the “solubility change mitosis (log2)” value in the data set on HeLa Kyoto [1] amounted to 0.618.

As to RPSA, the “solubility change mitosis (log2)” value in the data set on HeLa Kyoto [1] stood at 0.449.

As for RTF1, the “solubility change mitosis (log2)” value in the data set on HeLa Kyoto [1] was found to be 0.0675.

SMU1: the “solubility change mitosis (log2)” value in the data set with HeLa Kyoto [1] was determined as 0.423.

As for SUPT5H, the “solubility change mitosis (log2)” value in the data set with HeLa Kyoto [1] is -0.0755.

With TMEM245, the “solubility change mitosis (log2)” value in the data set with HeLa Kyoto [1] stood at 0.113.

On to TPCN1, for which the “solubility change mitosis (log2)” value in the data set with HeLa Kyoto [1] is -0.0955.

For TTR, the “solubility change mitosis (log2)” value in the data set with HeLa Kyoto [1] amounted to 0.336.

For the substance UNC119, in the data set with HeLa Kyoto [1], the “solubility change mitosis (log2)” value was -0.0626.

On to WDR12, for which the “solubility change mitosis (log2)” value in the data set with HeLa Kyoto [1] came out at 0.45.

Consider WDR61, for which the “solubility change mitosis (log2)” value with HeLa Kyoto [1] was -0.0946.

With YTHDC1, the “solubility change mitosis (log2)” value with HeLa Kyoto [1] is -0.0521.
